{"source": "paper PMC5472405", "about": "“Epithelial chemokine CXCL14 synergizes with CXCL12 via allosteric modulation of CXCR4” (The FASEB Journal, 2017)", "binders": {"B1": {"name": "CXC chemokine ligand 14 (CXCL14), synthetic (ligand, human, UniProt O95715 35-111, looked up)", "chain": "SKCKCSRKGPKIRYSDVKKLEMKPKYPHCEEKMVIITTKSVSRYRGQEHCLHPKLQSTKRFIKWYNAWNEKRRVYEE", "notes": "source: chemically synthesized"}, "B2": {"name": "CXC chemokine receptor 4 (CXCR4) on lentiviral particles (receptor, UniProt P61073 1-352, looked up)", "chain": "MEGISIYTSDNYTEEMGSGDYDSMKEPCFREENANFNKIFLPTIYSIIFLTGIVGNGLVILVMGYQKKLRSMTDKYRLHLSVADLLFVITLPFWAVDAVANWYFGNFLCKAVHVIYTVNLYSSVLILAFISLDRYLAIVHATNSQRPRKLLAEKVVYVGVWIPALLLTIPDFIFANVSEADDRYICDRFYPNDLWVVVFQFQHIMVGLILPGIVILSCYCIIISKLSHSKGHQKRKALKTTVILILAFFACWLPYYIGISIDSFILLEIIKQGCEFENTVHKWISITEALAFFHCCLNPILYAFLGAKFKTSAQHALTSVSRGSSLKILSKGKRGGHSSVSTESESSSFHSS", "notes": "also called CXCR4-expressing LVPs"}}, "key": {"[1]": {"target": "B2", "assay": "SPR; CXCR4 lentiviral particles (8000-8500 RU) immobilised on a CM5 chip; CXCL12 or CXCL14 12.5-200 nM injected in HBS (100 mM HEPES, 150 mM NaCl, 0.005% P20, pH 7.4), 30 ul/min, 25°C; reference: particles from CXCR4-negative cells or none; simple 1-site model; Biacore 3000", "details": "one partner purified"}, "[2]": {"target": "B2", "assay": "cell-based or functional assay"}, "[3]": {"target": "T1, full-length CXCL12α, synthetic (human, UniProt P48061-2 22-89)", "T1 construct": "also called CXC chemokine ligand 12; source: chemically synthesized", "T1 sequence (P48061 22-89)": "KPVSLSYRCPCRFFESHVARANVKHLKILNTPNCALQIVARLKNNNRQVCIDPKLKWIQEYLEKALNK", "assay": "SPR; CXCR4 lentiviral particles (8000-8500 RU) immobilised on a CM5 chip; CXCL12 or CXCL14 12.5-200 nM injected in HBS (100 mM HEPES, 150 mM NaCl, 0.005% P20, pH 7.4), 30 ul/min, 25°C; reference: particles from CXCR4-negative cells or none; simple 1-site model; Biacore 3000", "details": "one partner purified"}}, "data": [{"binder": "B1", "values": [{"measurement": "Kd", "setting": "[1]", "result": 8, "unit": "nM"}, {"measurement": "koff", "setting": "[1]", "result": 0.00317, "unit": "s⁻¹"}, {"measurement": "kon", "setting": "[1]", "result": 396000, "unit": "M⁻¹ s⁻¹"}, {"measurement": "entry of R5-tropic HIV-1 (pR8Bal) into TZM-bl cells (luciferase reporter), 0-1000 nM CXCL14", "setting": "[2]", "result": "> 3", "unit": "fold"}, {"measurement": "entry of X4 HIV-1 (pNL4.3) into TZM-bl cells (luciferase reporter), 10-1000 nM CXCL14 alone", "setting": "[2]", "result": "> 3", "unit": "fold"}]}, {"binder": "B2", "values": [{"measurement": "Kd", "setting": "[3]", "result": 35, "unit": "nM"}, {"measurement": "koff", "setting": "[3]", "result": 0.00428, "unit": "s⁻¹"}, {"measurement": "kon", "setting": "[3]", "result": 122000, "unit": "M⁻¹ s⁻¹"}]}]}
